The data set concerns the target T1, Jumu FKH domain (SPR) (UniProt Q7K214 391-540).
T1 sequence: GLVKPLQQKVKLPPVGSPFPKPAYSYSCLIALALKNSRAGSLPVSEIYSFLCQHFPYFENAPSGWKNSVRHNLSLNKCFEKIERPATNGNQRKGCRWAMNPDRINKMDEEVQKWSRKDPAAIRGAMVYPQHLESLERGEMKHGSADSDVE
Nature of the data set: SPR; EMSA: 20 mM HEPES pH 7.5, 50 mM KCl, 1 mM DTT (printed DDT), 1 mM EDTA, 0.01 mg/ml BSA, 2% Ficoll 400, 5 ng/µl poly(dI:dC), 25 °C, 15 nM probe; SPR: 20 mM Tris-Cl pH 8.0, 150 mM NaCl, 0.005% Tween 20, 25 °C; pull-down: 50 mM Tris-HCl pH 8, 150 mM NaCl, 1 mM DTT, 0.25% NP40. As to conditions: protein: recombinant; label: 5' and 3' FAM (EMSA); biotin (SPR, pull-down).

B1: 6mA-dsDNA probe (dsDNA)
DNA 1: GCTATTTATGCGTTCTTTTCTTCTTTCTCATTTCTATATTTATAGTGTGTGTGTGTGTGTGGGTGTGTTTGTTGTATGTGGTTAAATATGCTTCGTTTTTGTTTAATTGGTTTTTGTTTTTGTGATGATCATGGG
DNA 2: CCCATGATCATCACAAAAACAAAAACCAATTAAACAAAAACGAAGCATATTTAACCACATACAACAAACACACCCACACACACACACACACTATAAATATAGAAATGAGAAAGAAGAAAAGAACGCATAAATAGC
modifications: N6-methyladenine in place of dA, by PCR with dm6ATP (both strands; primer-derived adenines probably unmodified, primers not given)
One may read the Kd as a measure of binding affinity in units of concentration. Take B1: the Kd is 2.37 µM.

B2: dA-dsDNA probe (dsDNA)
DNA 1: B1 DNA 1
DNA 2: B1 DNA 2
Regarding B2, the Kd is 42.1 µM.

These data come from paper PMC6525185, “6mA-DNA-binding factor Jumu controls maternal-to-zygotic transition upstream of Zelda”.
